According to patent US20220332836A1, “A METHOD FOR PREVENTING HUMAN VIRUS ASSOCIATED DISORDERS IN PATIENTS” (NOVARTIS AG, priority 2019, published 2022):

Columns and labels:
human leukocytes = assay: rCD154-induced activation of human leukocytes; type: cell-based
Description: (§1) mAb1 binds to human CD40 with high affinity (Kd of 0.3 nM).

[1] = system: antibody-dependent cellular cytotoxicity or complement-dependent cytotoxicity; assay: ADCC / CDC mediation; type: cell-based
Description: Currently, CFZ533/Iscalimab is in clinical development for inhibition of transplant organ rejection and therapy for autoimmune diseases.
as §1

CD40 [2] = target: T1, CD40 (Homo sapiens, UniProt P25942); assay: Phase 1 single-ascending dose study in healthy subjects and rheumatoid arthritis patients; type: in vivo; conditions: for safety and tolerability: interim
T1 construct: CD40 occupancy on peripheral B cells measuring free CD40 and total CD40; endogenous in cells; host or cells: peripheral / whole blood B cells of healthy subjects and rheumatoid arthritis patients (in vivo)
T1 sequence (P25942 21-277): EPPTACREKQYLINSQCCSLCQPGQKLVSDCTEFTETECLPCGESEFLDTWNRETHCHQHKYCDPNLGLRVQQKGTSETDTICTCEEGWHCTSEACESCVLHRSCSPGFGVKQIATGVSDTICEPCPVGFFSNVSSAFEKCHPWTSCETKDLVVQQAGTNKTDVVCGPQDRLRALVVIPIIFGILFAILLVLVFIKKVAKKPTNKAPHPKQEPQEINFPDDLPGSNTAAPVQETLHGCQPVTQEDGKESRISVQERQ
Description: The safety, tolerability, PK and PD activity of mAb1 are being assessed in an ongoing, randomized, double-blind, placebo-controlled, single-ascending dose study of mAb1 in healthy subjects and patients with rheumatoid arthritis (RA). A total of 48 subjects have been enrolled: 36 healthy subjects who received single doses of mAb1 up to 3 mg/kg IV or S.C., and 12 patients with RA, 6 of whom received single doses of mAb1 at 10 mg/kg IV. […] An investigation of the 30 mg/kg IV dose is ongoing in RA patients. As this study is still ongoing, all clinical data are preliminary in nature and based on interim analyses conducted up to a dose of 10 mg/kg in RA patients.
In healthy subjects as well as in patients with rheumatoid arthritis, after single IV or SC administration, CFZ533 PK profiles were consistent with target mediated disposition resulting in non-linear PK profiles and more rapid clearance when CD40 receptor occupancy dropped below approximately 90%. […]

[3] = system: Fcγ receptors (including CD16); assay: Fcγ receptor binding
[4] = system: EBV-seropositive EBV-B cell/T cell co-cultures; assay: EBV-B cell/T cell co-culture, EBV-seropositive donors
CD40 [5] = target: T1, CD40; assay: CD40 receptor occupancy and CD154-induced CD69 expression in human whole blood cultures; type: cell-based; conditions: CD20 positive B cells
From the text: In addition, mAb1 can disrupt established germinal centers (GCs) in vivo. The CD40 receptor occupancy and functional activity were simultaneously assessed in vitro using human whole blood cultures. Functional activity was quantified via CD154-induced expression of CD69 (the activation marker) on CD20 positive cells (B cells) and CD40 occupancy was monitored using fluorescently labeled mAb1.

whole blood cultures = whole blood cultures incubated for three days (Ristov 2018); cited from earlier work
[6] = system: NK cell-depleted PBMC cultures; assay: EBV regression assay, complete or NK cell-depleted PBMC; type: cell-based, human; conditions: 14 days
From the text: (§2) FIG. 16 provides CD3^+ T cell counts from the NK cell-depleted PBMC regression assay after 14 days of culture measured by flow cytometry. Antibodies (in μg/mL) and CsA (in μM) were given in combination with EBV supernatants (except the negative control=medium w/o EBV). Dotted horizontal line was set to the condition ‘medium+EBV’. Data are shown as mean+SEM (n=4).
as §2, with “17” for “16”, “CD19^+ B cell counts from the PBMC regression assay after 14 days of culture measured by flow cytometry. Antibodies (in μg/mL) and CsA (in μM) were given in combination with EBV supernatants (except the negative control=medium w/o EBV). Dotted horizontal line was set to the condition ‘medium+EBV’. Data are shown as mean+SEM (n=4); and CD19^+ B” for “CD3^+ T”
All conditions except ‘medium w/o EBV’ were incubated with EBV supernatant and respective compound or antibodies. […] Looking at the CD19+ B cell proliferation (FIG. 3), there was an obvious increase in CD19+ B cell counts when PBMC were incubated with EBV supernatant compared to PBMC cultured with medium only (medium w/o EBV). […]

[7] = 13-week GLP rhesus monkey toxicity study; type: in vivo
Description: Inflammatory lesions in the kidneys and lungs of 2 animals at 50 mg/kg were noted, and in one of the two animals, lesions in the eyes and trachea were also noted. […] In view of these inflammatory findings, the No Observed Adverse Effect Level (NOAEL) for the 13-week toxicity study was set at 10 mg/kg. […] The NOAEL derived from the 26-week cynomolgus monkey study is considered the most relevant for supporting the clinical dosing regimen.
Adequate safety margin from preclinical toxicological studies: GLP toxicology studies to date have tested CFZ533 at (i) weekly s.c. dosing for 13 weeks at 10, 50, and 150 mg/kg (s.c. and i.v.) in rhesus monkeys, and (ii) weekly s.c. dosing for 26 weeks at 1, 50, and 150 mg/kg in cynomolgus monkeys.

non-human primate CD40 = assay: Binding to non-human primate CD40
Description: as §1

kidney allografts = conditions: cited from earlier work
[8] = single dose of 3 mg/kg (IV and SC)
[9] = 10-200 μg/mL, priming, recall, priming and recall, 11 days

CFZ533: fully human monoclonal Fc-silent, non-depleting anti-CD40 antibody (IgG1/K); heavy chain SEQ ID NO: 9, light chain SEQ ID NO: 10
rCD154-induced activation of human leukocytes (human leukocytes): inhibits
mediation of ADCC or CDC ([1]; listed as CFZ533/Iscalimab): incapable of mediating
mediation of ADCC or CDC ([1]; listed as mAb1): does not
disposition in Chinese subjects versus non-Chinese subjects (CD40 [2]; 3 mg/kg IV): generally similar
duration of target engagement (CD40 [2]; 3 mg/kg IV): about 4 weeks
duration of target engagement (CD40 [2]; 3 mg/kg SC): about 4 weeks
time of peak plasma concentration post-dose (CD40 [2]; 3 mg/kg SC, healthy subjects): 3 days
duration of full CD40 occupancy (CD40 [2]; 10 mg/kg IV, rheumatoid arthritis patients): 8 weeks
duration of target engagement (CD40 [2]; 30 mg/kg IV, rheumatoid arthritis patients): 16 weeks
decrease in total CD40 on peripheral B cells (CD40 [2]; healthy subjects): about 50%
rCD154-induced CD69 expression on B cells (CD40 [2]; human whole blood, during full CD40 occupancy): generally suppressed
extent of exposure (AUClast) versus dose (CD40 [2]; human, in vivo): increased more than the increase in dose
plasma concentration associated with full (>90%) CD40 occupancy on whole blood B cells (CD40 [2]; human, in vivo): 0.3 to 0.4 µg/mL
decrease in total CD40 on peripheral B cells (CD40 [2]; patients with rheumatoid arthritis): not confirmed
safety and tolerability (CD40 [2]; single 10 mg/kg, RA patients): safe and well tolerated
CD40 receptor occupancy below which clearance is more rapid (CD40 [2]; single IV or SC administration): approximately 90%
safety in Phase 1 study CCFZ533×2101 (CD40 [2]; single ascending doses 0.03 to 30 mg/kg i.v. and 3 mg/kg s.c.): did not reveal major safety concern
anti-KLH responses to the first KLH immunization (CD40 [2]; [8]): transiently suppressed
duration of full (>90%) receptor occupancy with anti-KLH suppression (CD40 [2]; [8]): 3-4 weeks
safety and tolerability (CD40 [2]; single doses up to 3 mg/kg, healthy volunteers): safe and well tolerated
binding to Fcγ receptors (including CD16) [3]: does not bind
CD3+ T cell proliferation [4, 9]: no reducing effect
CD4+ T cell proliferation [4, 9]: no decreasing effect
CD4+ T cell proliferation ([4]; priming only phase): slight decline
CD40 occupancy required for full inhibition of rCD154-induced CD69 expression (CD40 [5]): Almost complete
ADCC (whole blood cultures): no ADCC
CD19+ B cell counts [6]: decrease in CD19+ B cell counts compared to isotype control independently of NK cells
No Observed Adverse Effect Level (NOAEL) ([7]; 13-week toxicity study): 10 mg/kg
major toxicology findings ([7]; weekly dosing 13 weeks at 10, 50, 150 mg/kg): did not reveal any major finding
affinity for human and non-human primate CD40 (non-human primate CD40): very similar affinities
peripheral B cell depletion (kidney allografts; in vivo): no significant peripheral B cell depletion
survival of kidney allografts (kidney allografts; non-human primates): can prolong survival
